These results are taken from the supplement of paper PMC5998384.

Series [1] concerns HeLa Kyoto. As to the kind of experiment: solubility in G1/S (NP-40 vs SDS abundance) (log2 ratio); higher = more soluble. Conditions: cell cycle stage: G1/S.
Series [2] relates to HeLa Kyoto. Kind of series: melting temperature (median over replicates), in situ; higher = more thermally stable.
For series [3], the system named is HeLa Kyoto. Kind of series: solubility change mitosis vs G1/S (difference of NP-40 vs SDS log2 ratios) (log2 ratio difference); higher = more soluble in mitosis.
For series [4], the system named is HeLa Kyoto. Kind of series: thermal stability score vs G1/S (z-score of summed log2 fold changes over temperatures); higher = more thermally stable than in G1/S.
[5] abbreviates: cell cycle stage: early G1 (4.5 h after nocodazole release).
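Throughout, for melting temperature (median over replicates), in situ: HeLa Kyoto cells synchronized by double thymidine or nocodazole block, proteins quantified by TMT10plex mass spectrometry, three independent biological replicates.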
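Throughout, for solubility change mitosis vs G1/S (difference of NP-40 vs SDS log2 ratios): synchronized HeLa Kyoto cells (double thymidine block for G1/S, nocodazole release for mitosis), protein amounts in NP-40 versus SDS lysates quantified by mass spectrometry, three biological replicates.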
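Throughout, for solubility in G1/S (NP-40 vs SDS abundance): HeLa Kyoto cells arrested at G1/S by double thymidine block, proteins quantified by TMT10plex mass spectrometry in mild NP-40 versus SDS extracts, three biological replicates.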
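Throughout, for thermal stability score vs G1/S (z-score of summed log2 fold changes over temperatures): synchronized HeLa Kyoto cells, proteins quantified by TMT10plex mass spectrometry, three biological replicates, mitosis taken 0.5 h after nocodazole release, G1/S directly after double thymidine block.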

Consider “MAKRNAEKELTDRNWDQEDEAEEVGTFSMASEEVLKNRAIKKAKRRNVGFESDTGGAFKGFKGLVVPSGGGRFSGFGSGAGGKPLEGLSNGNNITSAPPFASAKAAADPKVAFGSLAANGPTTLVDKVSNPKTNGDSQQPSSSGLASSKACVGNAYHKQLAALNCSVRDWIVKHVNTNPLCDLTPIFKDYEKYLANIEQQHGNSGRNSESESNKVAAETQSPSLFGSTKLQQESTFLFHGNKTEDTPDKKMEVASEKKTDPSSLGATSASFNFGKKVDSSVLGSLSSVPLTGFSFSPGNSSLFGKDTTQSKPVSSPFPTKPLEGQAEGDSGECKGGDEEENDEPPKVVVTEVKEEDAFYSKKCKLFYKKDNEFKEKGIGTLHLKPTANQKTQLLVRADTNLGNILLNVLIPPNMPCTRTGKNNVLIVCVPNPPIDEKNATMPVTMLIRVKTSEDADELHKILLEKKDA [NUP50]”, for which, in the series with HeLa Kyoto [1], the “solubility in G1/S (log2)” value came to 0.204. In addition, the values for the melting temperature in the series with HeLa Kyoto [2] (cell cycle stage: G1/S) and in the series with HeLa Kyoto [2] (cell cycle stage: mitosis) were 51.9 °C and 52.8 °C, respectively. Moreover, the “solubility change mitosis (log2)” value in the series on HeLa Kyoto [3] amounted to 0.0955. Moreover, the thermal stability score is -1.56 in the series on HeLa Kyoto [4] (setting [5]) and -1.75 with HeLa Kyoto [4] (cell cycle stage: mitosis).
With “MAKTYDYLFKLLLIGDSGVGKTCLLFRFSEDAFNTTFISTIGIDFKIRTIELDGKKIKLQIWDTAGQERFRTITTAYYRGAMGIMLVYDITNEKSFDNIKNWIRNIEEHASSDVERMILGNKCDMNDKRQVSKERGEKLAIDYGIKFLETSAKSSANVEEAFFTLARDIMTKLNRKMNDSNSAGAGGPVKITENRSKKTSFFRCSLL [RAB8B]”, the “solubility in G1/S (log2)” value in the series on HeLa Kyoto [1] was -0.16. Moreover, the melting temperature with HeLa Kyoto [2] (cell cycle stage: G1/S) stood at 55.9 °C; in the series with HeLa Kyoto [2] (cell cycle stage: mitosis), 54 °C. The “solubility change mitosis (log2)” value with HeLa Kyoto [3] was -0.0727. For the same sequence, the thermal stability score was determined as 1.55 in the series with HeLa Kyoto [4] (setting [5]) and 0.563 in the series on HeLa Kyoto [4] (cell cycle stage: mitosis).
On to “MALAARLLPQFLHSRSLPCGAVRLRTPAVAEVRLPSATLCYFCRCRLGLGAALFPRSARALAASALPAQGSRWPVLSSPGLPAAFASFPACPQRSYSTEEKPQQHQKTKMIVLGFSNPINWVRTRIKAFLIWAYFDKEFSITEFSEGAKQAFAHVSKLLSQCKFDLLEELVAKEVLHALKEKVTSLPDNHKNALAANIDEIVFTSTGDISIYYDEKGRKFVNILMCFWYLTSANIPSETLRGASVFQVKLGNQNVETKQLLSASYEFQREFTQGVKPDWTIARIEHSKLLE [C2ORF47]”, for which the “solubility in G1/S (log2)” value in the series with HeLa Kyoto [1] was -0.257. The melting temperature stood at 53.7 °C in the series with HeLa Kyoto [2] (cell cycle stage: G1/S) and 53.3 °C with HeLa Kyoto [2] (cell cycle stage: mitosis). In the series on HeLa Kyoto [3], the “solubility change mitosis (log2)” value was -0.117. Moreover, the values for the thermal stability score in the series on HeLa Kyoto [4] (setting [5]) and in the series with HeLa Kyoto [4] (cell cycle stage: mitosis) were 0.0315 and 0.76, respectively.
As for “MALDGIRMPDGCYADGTWELSVHVTDLNRDVTLRVTGEVHIGGVMLKLVEKLDVKKDWSDHALWWEKKRTWLLKTHWTLDKYGIQADAKLQFTPQHKLLRLQLPNMKYVKVKVNFSDRVFKAVSDICKTFNIRHPEELSLLKKPRDPTKKKKKKLDDQSEDEALELEGPLITPGSGSIYSSPGLYSKTMTPTYDAHDGSPLSPTSAWFGDSALSEGNPGILAVSQPITSPEILAKMFKPQALLDKAKINQGWLDSSRSLMEQDVKENEALLLRFKYYSFFDLNPKYDAIRINQLYEQAKWAILLEEIECTEEEMMMFAALQYHINKLSIMTSENHLNNSDKEVDEVDAALSDLEITLEGGKTSTILGDITSIPELADYIKVFKPKKLTLKGYKQYWCTFKDTSISCYKSKEESSGTPAHQMNLRGCEVTPDVNISGQKFNIKLLIPVAEGMNEIWLRCDNEKQYAHWMAACRLASKGKTMADSSYNLEVQNILSFLKMQHLNPDPQLIPEQITTDITPECLVSPRYLKKYKNKQITARILEAHQNVAQMSLIEAKMRFIQAWQSLPEFGITHFIARFQGGKKEELIGIAYNRLIRMDASTGDAIKTWRFSNMKQWNVNWEIKMVTVEFADEVRLSFICTEVDCKVVHEFIGGYIFLSTRAKDQNESLDEEMFYKLTSGWV [FERMT2]”, in the series with HeLa Kyoto [1], the “solubility in G1/S (log2)” value was -0.166. The melting temperature was determined as 54.6 °C with HeLa Kyoto [2] (cell cycle stage: G1/S) and 55.2 °C in the series on HeLa Kyoto [2] (cell cycle stage: mitosis). In addition, the “solubility change mitosis (log2)” value with HeLa Kyoto [3] is -0.119. Besides, the thermal stability score with HeLa Kyoto [4] (setting [5]) was -0.389; in the series on HeLa Kyoto [4] (cell cycle stage: mitosis) it was 0.267.
Regarding “MALHSMRKARERWSFIRALHKGSAAAPALQKDSKKRVFSGIQPTGILHLGNYLGAIESWVRLQDEYDSVLYSIVDLHSITVPQDPAVLRQSILDMTAVLLACGINPEKSILFQQSQVSEHTQLSWILSCMVRLPRLQHLHQWKAKTTKQKHDGTVGLLTYPVLQAADILLYKSTHVPVGEDQVQHMELVQDLAQGFNKKYGEFFPVPESILTSMKKVKSLRDPSAKMSKSDPDKLATVRITDSPEEIVQKFRKAVTDFTSEVTYDPAGRAGVSNIVAVHAAVTGLSVEEVVRRSAGMNTARYKLAVADAVIEKFAPIKREIEKLKLDKDHLEKVLQIGSAKAKELAYTVCQEVKKLVGFL [WARS2]”, in the series with HeLa Kyoto [1], the “solubility in G1/S (log2)” value is 0.308. For the same sequence, the melting temperature stood at 48.7 °C with HeLa Kyoto [2] (cell cycle stage: G1/S) and 49.2 °C in the series on HeLa Kyoto [2] (cell cycle stage: mitosis). Further, the “solubility change mitosis (log2)” value with HeLa Kyoto [3] is -0.0372. In addition, the thermal stability score amounted to 0.66 in the series with HeLa Kyoto [4] (setting [5]) and 0.794 with HeLa Kyoto [4] (cell cycle stage: mitosis).
